Test results as given in US20200306385A1 (ADC THERAPEUTICS S A, published 2020).

Target: CD22 (human, UniProt P20273 20-847)
Test: cell-based or functional assay

B1: Epratuzumab-A (antibody, V domains shown)
VH: QVQLVQSGAEVKKPGSSVKVSCKASGYTFTSYWLHWVRQAPGQGLEWIGYINPRNDYTEYNQNFKDKATITADESTNTAYMELSSLRSEDTAFYFCARRDITTFYWGQG
VL: DIQLTQSPSSLSASVGDRVTMSCKSSQSVLYSANHKNYLAWYQQKPGKAPKLLIYWASTRESGVPSRFSGSGSGTDFTFTISSLQPEDIATYYCHQYLSSWTFGQG
modifications: PBD dimer drug-linker A (SG3246) conjugated to thiols of TCEP-reduced cysteine disulfide bridges; DAR 2.03; which cysteines are modified is not stated
- EC50 (µg/mL), in vitro cytotoxicity (cell survival, Alamar Blue, 4 days) on CD22+ve Daudi cells: 0.0136 µg/mL
- EC50 (µg/mL), in vitro cytotoxicity (cell survival, Alamar Blue, 4 days) on CD22+ve Ramos cells: 0.0332 µg/mL
- EC50 (µg/mL), in vitro cytotoxicity (cell survival, Alamar Blue, 4 days) on CD22+ve WSU-DLCL2 cells: 0.0243 µg/mL
